Experimental data: paper PMC10125973, “A small secreted protein NICOL regulates lumicrine-mediated sperm maturation and male fertility” (Nature Communications, 2023)

Molecular target: T1, neural epidermal growth factor-like like 2 (NELL2), C-terminally 6xHis-tagged recombinant (UniProt Q61220 25-819)
T1 construct: NELL2, secreted protein; also called purified recombinant NELL2; source: human 293-F cells, transiently expressed, purified from conditioned medium (ammonium sulphate, Ni-NTA, PD-10)
T1 sequence (looked up): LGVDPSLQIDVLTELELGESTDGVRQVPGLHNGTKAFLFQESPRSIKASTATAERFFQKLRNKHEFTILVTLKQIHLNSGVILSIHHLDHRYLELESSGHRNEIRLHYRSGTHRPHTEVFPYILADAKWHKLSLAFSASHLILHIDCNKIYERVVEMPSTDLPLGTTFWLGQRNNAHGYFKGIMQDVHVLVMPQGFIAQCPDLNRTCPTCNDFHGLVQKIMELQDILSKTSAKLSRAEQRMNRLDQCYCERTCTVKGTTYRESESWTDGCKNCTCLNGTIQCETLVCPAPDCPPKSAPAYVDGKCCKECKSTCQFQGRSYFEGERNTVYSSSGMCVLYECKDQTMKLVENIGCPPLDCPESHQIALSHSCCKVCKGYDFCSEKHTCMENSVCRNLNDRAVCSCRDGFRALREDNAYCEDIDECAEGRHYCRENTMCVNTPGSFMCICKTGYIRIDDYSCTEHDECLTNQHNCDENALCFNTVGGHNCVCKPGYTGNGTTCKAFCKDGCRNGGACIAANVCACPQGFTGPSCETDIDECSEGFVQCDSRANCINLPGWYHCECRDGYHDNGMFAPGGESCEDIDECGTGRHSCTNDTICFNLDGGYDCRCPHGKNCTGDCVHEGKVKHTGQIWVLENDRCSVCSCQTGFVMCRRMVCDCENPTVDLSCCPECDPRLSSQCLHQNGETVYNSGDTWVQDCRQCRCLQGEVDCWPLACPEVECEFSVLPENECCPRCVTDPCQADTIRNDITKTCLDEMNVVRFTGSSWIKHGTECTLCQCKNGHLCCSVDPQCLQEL
Assay: SPR; purified NELL2 immobilised on series S sensor chip CM5; purified NICOL in PBS as analyte; Biacore T200
Details: both partners purified

B1: NELL2-interacting cofactor for lumicrine signalling (NICOL), 6xHis-tagged recombinant (natural protein, mouse, UniProt Q3UR78 29-90, looked up)
chain: EPATGSAVPAQSRPCVDCHAFEFMQRALQDLRKTAYSLDARTETLLLQAERRALCACWPAGR
notes: mouse NICOL (predicted gene Gm1673, ortholog of human C4orf48), small secreted protein; cDNA encoding mouse NICOL followed by 6xHis; purified from conditioned medium, so without its signal peptide; also called purified recombinant NICOL protein; source: human 293-F cells, transiently expressed, purified from conditioned medium (ammonium sulphate, Ni-NTA, PD-10)
Binder B1 has a Kd of 87 nM, a koff of 0.0062 s⁻¹ and a kon of 72000 M⁻¹ s⁻¹.
